Experiments:
FRET or BRET = target: the molecule itself; test: FRET or BRET
[1] = target: the molecule itself; test: SDS-agarose gel electrophoresis of SDS-resistant oligomer, immunoblot; PLY^PPL incubated with mouse or human serum diluted 1:2 to 1:40 in HEPES buffered saline, 37°C, 20 minutes; SDS-AGE (1.5%), blot probed with rabbit anti-PLY serum

Protein | binding result (FRET or BRET) | binding result [1]
pre-pore locked pneumolysin with Cys-117, labelled with Alexa Fluor 488 or 568 (PLY^PPL D117C) (natural protein, Streptococcus pneumoniae, UniProt P0C2J9 1-471, looked up, Alexa Fluor 488 (donor) or Alexa Fluor 568 (acceptor) on the sulfhydryl of Cys-117; disulfide between cysteine-substituted Gly-25 and Glu-159, Donor-labelled protein was mixed with acceptor-labelled or unlabelled (U) protein in the FRET assay; also called D labeled PLY^PPL; A labeled PLY^PPL; source: E. coli Tuner cells, purified) MANKAVNDFILAMNYDKKKLLTHQCESIENRFIKEGNQLPDEFVVIERKKRSLSTNTSDISVTATNDSRLYPGALLVVDETLLENNPTLLAVDRAPMTYSIDLPGLASSDSFLQVECPSNSSVRGAVNDLLAKWHQDYGQVNNVPARMQYEKITAHSMCQLKVKFGSDFEKTGNSLDIDFNSVHSGEKQIQIVNFKQIYYTVSVDAVKNPGDVFQDTVTVEDLKQRGISAERPLVYISSVAYGRQVYLKLETTSKSDEVEAAFEALIKGVKVAPQTEWKQILDNTEVKAVILGGDPSSGARVVTGKVDMVEDLIQEGSRFTADHPGLPISYTTSFLRDNVVATFQNSTDYVETKVTAYRNGDLLLDHSGAYVAQYYITWNELSYDHQGKEVLTPKAWDRNGQDLTAHFTTSIPLKGNVRNLSVKIREATGLAWEWWRTVYEKTDLPLVRKRTISIWGTTLYPQVEDKVEND | binds | –
pre-pore locked pneumolysin (PLY^PPL) (natural protein, disulfide between cysteine-substituted Gly-25 and Glu-159, pneumolysin (PLY) of Streptococcus pneumoniae, codon-optimised gene in pET-15b (NdeI/BamHI); cysteine-less background (Cys-428 to Ala) with a disulfide between Cys-25 and Cys-159; also called prepore locked version of PLY; source: E. coli Tuner cells, purified) MANKAVNDFILAMNYDKKKLLTHQCESIENRFIKEGNQLPDEFVVIERKKRSLSTNTSDISVTATNDSRLYPGALLVVDETLLENNPTLLAVDRAPMTYSIDLPGLASSDSFLQVEDPSNSSVRGAVNDLLAKWHQDYGQVNNVPARMQYEKITAHSMCQLKVKFGSDFEKTGNSLDIDFNSVHSGEKQIQIVNFKQIYYTVSVDAVKNPGDVFQDTVTVEDLKQRGISAERPLVYISSVAYGRQVYLKLETTSKSDEVEAAFEALIKGVKVAPQTEWKQILDNTEVKAVILGGDPSSGARVVTGKVDMVEDLIQEGSRFTADHPGLPISYTTSFLRDNVVATFQNSTDYVETKVTAYRNGDLLLDHSGAYVAQYYITWNELSYDHQGKEVLTPKAWDRNGQDLTAHFTTSIPLKGNVRNLSVKIREATGLAWEWWRTVYEKTDLPLVRKRTISIWGTTLYPQVEDKVEND | – | binds

— paper PMC4154877, “Mouse, but Not Human, ApoB-100 Lipoprotein Cholesterol Is a Potent Innate Inhibitor of Streptococcus pneumoniae Pneumolysin” (PLoS Pathogens, 2014)
